Measurements from patent US6489125.

Key:
[1] = target: RyR2 channels from failing hearts; experiment: co-immunoprecipitation, immunoblot densitometry (FIG. 4B)
[2] = target: RyR2 channels from failing hearts; experiment: cell-based or functional assay
[3] = test system: type 2 ryanodine receptor (RyR2), native channel from cardiac sarcoplasmic reticulum

“FK-506 binding protein FKBP12.6, native from cardiac SR (from UniProt P68106 1-108)” was tested, and the decrease in the amount of FKBP12.6 bound (failing against normal hearts) [1] was 60% and the open probability (Po) at 50 nM cis (cytosolic) Ca^2+ [2] was 0.24.

With “protein kinase A (PKA) catalytic subunit, endogenous in cardiac SR” the “phosphorylation of RyR2 on addition of cAMP without exogenous PKA” value [3] was “Addition of phosphorylation buffer including cAMP without exogenous PKA also resulted in phosphorylation of RyR2 that was inhibited by PKI”.
